Laboratory results reported in article PMC11804793, “Characterization of a C-methyltransferase from Streptomyces griseoviridis – crystal structure, mechanism, and substrate scope” (Chemical Science, 2025).
One block for each molecule: values may come before it.

Assays:
SgMT = target: T1, SgMT (Streptomyces griseoviridis, UniProt A0A918GRY4); assay: X-ray crystallography, […] Å; type: binding; settings: non-methylated form of the cofactor, co-crystallised; cWW in the sample but not seen in density
T1 construct: gene GCM10010238_52040; C-terminally His-tagged for kinetics, produced in E. coli BL21 (DE3), Ni-NTA purified; dimer; residues before T7 disordered in crystal
T1 sequence (A0A918GRY4 1-269): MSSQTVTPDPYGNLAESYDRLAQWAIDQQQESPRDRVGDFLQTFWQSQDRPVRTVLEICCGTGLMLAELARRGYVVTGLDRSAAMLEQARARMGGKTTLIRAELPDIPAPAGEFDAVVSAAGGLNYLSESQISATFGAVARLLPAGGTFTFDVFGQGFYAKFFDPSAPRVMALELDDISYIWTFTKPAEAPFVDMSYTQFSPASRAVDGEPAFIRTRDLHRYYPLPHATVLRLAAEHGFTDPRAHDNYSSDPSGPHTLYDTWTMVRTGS

[1] = target: SAM-dependent indole C3-methyltransferase SgMT from Streptomyces griseoviridis (Streptomyces griseoviridis); assay: crystal structure; SgMT crystallised in the presence of SAH (cWW included in the sample but not seen); space group P4(1)2(1)2, three protein chains per asymmetric unit; dmin 1.47 Å
[2] = substrate: O=C1N[C@@H](Cc2c[nH]c3ccccc23)C(=O)N[C@H]1Cc1c[nH]c2ccccc12; assay: MTase Glo luminescence assay (SAH formation), Michaelis-Menten; type: biochemical, Streptomyces griseoviridis; settings: co-substrate SAM; C-terminally His-tagged enzyme

Molecule: Nc1ncnc2c1ncn2[C@@H]1O[C@H](CSCC[C@H](N)C(=O)O)[C@@H](O)[C@H]1O [SAH]
X-ray crystallography, 1.47 Å (SgMT): we crystallised the protein in the presence of the cofactor (using the non-methylated form, SAH)

stoichiometry N [1]: 2
Molecule: SAM-dependent indole C3-methyltransferase SgMT from Streptomyces griseoviridis (enzyme)

B1: SgMT (Streptomyces griseoviridis) (protein)
chain: MSSQTVTPDPYGNLAESYDRLAQWAIDQQQESPRDRVGDFLQTFWQSQDRPVRTVLEICCGTGLMLAELARRGYVVTGLDRSAAMLEQARARMGGKTTLIRAELPDIPAPAGEFDAVVSAAGGLNYLSESQISATFGAVARLLPAGGTFTFDVFGQGFYAKFFDPSAPRVMALELDDISYIWTFTKPAEAPFVDMSYTQFSPASRAVDGEPAFIRTRDLHRYYPLPHATVLRLAAEHGFTDPRAHDNYSSDPSGPHTLYDTWTMVRTGS
notes: C-terminally His-tagged for kinetics, produced in E. coli BL21 (DE3), Ni-NTA purified; dimer; residues before T7 disordered in crystal
Km [2]: 10.53 ± 2.01 µM
kcat [2]: 0.0025 s⁻¹
